Patent publication US20160202245A1 (MERZ PHARMA, published 2016)
Substitutions are numbered along the chain they refer to.

B1: mouse monoclonal antibody 20-2-5 (antibody, V domains shown)
VH: EVNLVESGGDLVKPGGSLKLSCAVSGFTFSGYAMSWVRQTPEKRLEWVASIATNGSTYYPDTVKGRFTIFRDNARNILYLQMSSLRSEDTAIYYCTRLRGFDNWGQGTTLTVSS
VL: DVLMTQIPLSLPVSLGDQASISCRSSQNIVHSNGNTYLEWYLQKSGQSPKLLIYKVFKRLSGVPDRFSGSGSGTDFTLRISRVEAEDLGVYYCFQGSHVPYTFGGGTKLEIK
B2: mouse monoclonal antibody 14-12-1 (antibody, V domains shown)
VH: EVKLVESGGDLVKPGGSLKLSCAASGFTLSDYAMSWVRQSPEERLEWVASISTNGSTYYPDSVKGRFTISRDNARNILSLQMSSLRSEDTAIYYCTRLRGFDNWGQGTLLTVSS
VL: B1 VL with I7T, I53M, F57S, S70R, R79K
B3: mouse monoclonal antibody 16-5-4 (antibody, V domains shown)
VH: EVKLVESGGDLVKPGGSLKLSCAASGFTFNTYAMSWVRQTPEKRLEWVASISSNGSTYHPESVKGRFTISRDIARNILNLQMSSLRSEDTAIYYCSRLRGFDYWGQGTTLTVSS
VL: B1 VL with I7T, N28S, S45P, L51P, L60F, R79K
B4: mouse monoclonal antibody 1-10-4 (antibody, V domains shown)
VH: EVKLVESGGDLVKPGGSLKLSCAVSGFSLNTYAMSWVRQTPEQRLEWVASISTNGSTYHSDSVKGRFTISRYNARNILYLQMSSLRSEDSAIYYCTRLRGFDYWGQGTTLTVSS
VL: B1 VL with V2I, I7T, P12S, S45P, L51P, V56L, F57S, L60F, D75Y, R79K
B5: mouse monoclonal antibody 6-3-8 (antibody, V domains shown)
VH: EVKLVEFGGGLVEPRGSLKLSCAASGFTFSTYAMSWVRQTPEKRLEWVASIASNGSTYYPDSVRGRFTISRDNARNILYLQMSSLRSEDTAMYYCSRLRGFDYWGQGSTLTVSS
VL: B1 VL with N28S, S45P, K50S, D75E, R79K, S81N
B6: mouse monoclonal antibody 18-3-3 (antibody, V domains shown)
VH: EVKLVESGGGLVKPGGSLKLSCAASGFTFRSYAVSWVRQTPEKRLEWVASISTNGSTYYPDSMKGRFTISRDTARNILYLEMNSLRSEDTAMYYCARLRGFDYWGQGTPLTVSS
VL: B1 VL with I7T, N28S, S45P, F57S, L60F, R79K, S81T
B7: mouse monoclonal antibody 5-10-5 (antibody, V domains shown)
VH: DVQLQESGPGLVKPSQSLSLTCTVTGFSITSDYAWNWIRQFPGNKLEWMGYISYKYGTRYNPSLKGRISITRDTSKNQFFLQLNSLTTEDTAIYYCARRGTDGYGFAYWGQGTLVTVSA
VL: DIVLTQSPASLGVSLGQRATISCRASESVSSSGYSYIHWYQQRPGQPPKLLIFLASNLESGVPARFSGSGSGTDFTLNIHPVEEEDAATYYCQHSRELPLTFGAGTKLELK

Biological target: T1, non-cleaved SNAP-25206 (UniProt P60880 1-206)
T1 construct: range 1-206
Experiment: ELISA and Western blots

Binder	binding result
B1	no binding
B2	no binding
B3	no binding
B4	no binding
B5	no binding
B6	no binding
B7	no binding
